This data set is described as follows: label from the status in PepcDB records.
For the sequence “MSVAGLKKQFHKASQLFSEKISGAEGTKLDDEFLDMERKIDVTNKVVAEILSKTTEYLQPNPAYRAKLGMLNTVSKIRGQVKTTGYPQTEGLLGDCMLKYGKELGEDSTFGNALIEVGESMKLMAEVKDSLDINVKQTFIDPLQLLQDKDLKEIGHHLKKLEGRRLDYDYKKKRVGKIPDEEVRQAVEKFEESKELAERSMFNFLENDVEQVSQLAVFIEAALDYHRQSTEILQELQSKLQMRISAASSVPRREYKPRPVKRSSSELNGVSTTSVVKTTGSNIPMDQPCCRGLYDFEPENQGELGFKEGDIITLTNQIDENWYEGMIHGESGFFPINYVEVIVPLPQ”, the protein production entry was “failed”.

In the case of “MSVAILAQEKLGDCVLLTPLVRNLRQAFPDLEIHLITFSRASANFFMNDPQVTAVHLVKKQPRRYFREVLSRKFDLLFNTKDHPSTWFLLQSALIRARFKVGHNNPFHEGLYDRLLDTEFHAHMAVKNCALLPLLGVTADTEACRPSLEHHHHHH”, the protein production entry is given as “not failed”.

For “MSVELEESQVCEACGCAGEIGFIIKEGDEVADVTIFAETKDALESELAKYIELAKSVCAGVEYNVSELTEESKELTARFKFEVSAEKLIFELKTRSLARLEHHHHHH”, the protein production entry was “not failed”.

In the case of “MSVIATILAYAGLAIVSTVVVWKGSELLESSTEKLSGYYQLPPLVQGSIVLAVGSSFPELSTAVLSAALHGDFELGVAAVVGSALFNILMIPALAGLWAEERLESTRDLIYKETQFYLISIVVLLLMFSFAVIYNPLAGGTDAQVGGVTRGLALLPLALYAVYVYLQYQDTRDHQPEAPPEDIHLPKQGTRLVGSLLIILIGVEGLIRSAVAFGDIFGTPSFLWGITVVAAGTSVPDAFVSIRASRAGNPVTSVANVLGSNIFDLLVCIPAAALVAGTVAINYSVGMPMMGVLSLATLIVLLTMRSEMVLTTPEAWGLIALYLAFVVWMGAETVGTVDLIPHLPPPAHTP”, the protein production result is recorded as “failed”.

Take “MSVISIILVLIIAFLAGLDGILDQFQFHQPLVSCTLIGLASGHTVAGIMLGGTLQFLALGWANIGAAVAPDVALASTAAAVIMIKGGDFSQKGITIAYGVAVPLAIAGLALTMVVRAISIGIVHGADAAAKNGNIRAVERSHYFALLLQGLRIVFPVALLLALPANHVKSILEAIPSWLSDGMTIGGGMVVAVGYAMILNMMATREVWPFFIIGFVLAAIPDTQITLFGLGMIGVALAMIYIALTNQTGRNSSSGQASSSSNDPIGDILEDY”: the protein production result is “failed”.

In the case of “MSVKVSVDDIDGITEVLNVYMNAAESGTGEEMSAAFHKDATIFGYVGDKLAFNGPIKDLYDWHNSNGPAKNVQSRITNIDIVGTVAHARVEAENWTNFKFSDLFLLLKLDGKWTIVNKVFHLHA”, the protein production entry was “not failed”.

Regarding “MSVLGFDIGNLNCYIGVARQGGIEVITNDYSLHATPACVSFGPKDRSMGVAARQAVTTNIKNTVINFKHLIGRKFSDPVAQRFIPFIPCKVVKLPNDDIGVQVSYLGEPHTFTPEQVLAALLTKLRTIVESQLSDVKKVSDCVLAVPSYFTDVQRRAVLSAIQYAGLNSLRIVNETTAIALAYGIYKQDLPEEDAKSRNVVFLDIGHSSTQASLVAFNRGKLQMVNTSYDLESGGIWFDALIREHFRKEFKTKYGIDAATSPRPWLRLLDECERVKKQMSANQTPIPLNIECFMEDKDVTGKMQRQEFEDLAAPIFNRIKQVLINLFADGVSIKPEEIDEIEIVGGSSRIPMIREIVKDLFGKEPKTTMNQDEAVARGAAMQCAILSPTFRVREFAIKDTQPYRIRLSWNSTGENGGENDVFSPRDEVPFSKLVSLLRSGPFNVEAHYAQPNVVPHNQVHIGSWKVNGARPGADGGNQKVKVKVRVNPDGIFTIASATMYEPRIVEEVPAEAMEVDGDAKTEAPAEPL”, the protein production result was “failed”.

Take “MSVLIYVESNGSEIKKSSMDAVAYGTQVASKLGGSAIVVAIGNIPQEQLTALGNFGASKVLHVTGDAFNQNAPLASAAAVVEAAKKAGAKVIVLPKSTLVDSFAPKLASQLKAGVVTNVTELPDTSAGFQVKRSIFTGKAFATVSINTDIKVITLAKNAYQGTETGGTAAVEALSVSLTDADTKVKTTNVEKMSGELLLTEAEIVVSGGRGLKGPENWGVLLDLAKALGAATGCSKPVSDMDWRPHHEHVGQTGVKVAPNLYIAVGISGAIQHLAGVNSSKCIVVINKDPEAPFFKAADYGIVGDLFEVLPKLTEAAKLLK”: the protein production result is “failed”.

Turning to “MSVLKEYRTVSEVVGPLMIVDQVAGVHYNELVDITLHNGERRKGQVLEVQGDKAMVQLFEGSTGINLAKTKVRFTGHPLELAVSEDMVGRIFDGMGQPIDGGPELIPEKYLDIDGQAINPVARDYPDEFIQTGISAIDHLNTLVRGQKLPVFSGSGLPHNELAAQIARQATVLNSDDNFAVVFAAMGITFEEAEFFMNDLRETGAIDRSVLFINLANDPAIERIATPRIALTTAEYLAYEKGMHVLVIMTDMTNYCEALREVSAARREVPGRRGYPGYLYTNLSTLYERAGRLIGKKGSVTQIPILTMPEDDITHPIPDLTGYITEGQIILSQELYKNGFRPPINVLPSLSRLKDKGSGEGKTRQDHAATMNQLFAAYAQGKQAKELAVVLGESALSETDKLYVAFTNRFEEEYINQGFYTNRSIEESLDLGWELLSILPRTELKRIKDDMLDRYLPKADTTMTKVFVAND”, the protein production entry is listed as “failed”.

For the sequence “MSVLVVGGDEITPIKAVLENLGCKDITHWDGRRESINRKNIPQNTECLVLLTNFLNHNTMKKFRGEAKKRNIPVVCSKRSVSCLYCEYCKIFGEAAAKNCPLNSFELEHHHHHH”, the protein production result is recorded as “failed”.

For the sequence “MSVNDQITHIGKTLSTTASAFLNYQKSNSNTQDVLTNNGPYKNLLSNTVNNASSTSYFYKRTEHGRFVKNASNTFEDIYSKTRRGDVFRNKFTDNKTCFRMLTYISDDLLNEIPTKEGLKSDADGKLLTEGGENENLRKNASKKETSLFQGFKSYLPIAELAIENTERLNYDTNGTSGTVGAKDVMSKTNERDEIHTELPNFQDSFLIPPGVETKKISSSYSPSALKSFSQTLVNSLEFLNIQKNSTLSEIRDIEVEVENLRQKKEKLLGKIANIEQNQLLLEDNLKQIDDRLDFLEEYGLEVIEANSDENAEDDGMSERKALKNDAIRNEGVTTESISSEASNLPPRRRQQLRDDNSLNRLGAFYSKSKKRHRKSFPTFQQLYEPGTKIGSIMSTHDDFLTCLDFDAPFGTLCTAGYLDHTVKIWDLSKQNKIGELAGHLATINCMQINRDYGTLVTGGRDAALKLWNLNLAQQLYQETQNLTSPTNHIDSPCVHTFEAHTDEVTALSLDPSFLVSGSQDRTIRQWDLRSGKCLQTIDLSFANVLTTSTNVDLSKSTLLTQRNERPSIGALQSFDAALATGTKDGVVRLWDLRSGKVIRTLKGHTDAITSLKFDSACLVTGSYDRTVRIWDLRTGLLNKFHAYSAPVLSLDLFQENAAVVVADEPSVQIYDSEKDESWSCVEQGNETSVSTVKYKENYMVEGRENGDVNIWAV”, the protein production entry is “failed”.

As to “MSVNESVNRIVGGSGVILAGTFLGMLLDILIKKVMTSHLSPADFGTYSLALTVISITGAVATLGLNEGVPRYIAFFRGRQEEQKVHELIISAILMGLIAGLLAILVSPSLFESLAGKGFDAQGQILSVVKILVFAIPFTILLNLTVAIYRGFDRTNVNMYFYNIIRPLSLLGFASAAVYFGASLKGVVFADLISMVFTFSIMSVYFVKKPPVKPEWKIKFSEPTRQLIRYSFPLLITATLLNLMSWIDTIMLGYFRPAEVVGVYNAVYPIVGFLSLVIASMGYVYVPVASKLWGLNKTQPVGSIYAVMTKWCFLLTFPIFALIFVYPEFLITKLYGAEYVGGTTALRILAMGFIANSYFGFNYHTLLASGDSDFLMRCSVASAGINAVVNFMLIPEYGMIGAAIGTAVSYASIEVSMTLRAWRKQKMHPFTSMYRKLTLVCVVMTATMLAAKIIIPLSGAAWEYAVFIIVYFAVIHYAKILDKDEISMVDEIRKNIRQNVSVHVPQAIKTLVP”, the protein production entry is reported as “failed”.

Consider “MSVNLGSLPRQRSLLSRLRDLWPLWLFLALLASALHYIVRYWPQIVLQSAIWQKSLHQQMSHLLQMVEQQPHQAGLSLMMFSLVYGVLHAVGPGHGKVVIMTYLATHPSKLKSSLKLTLAASLVQGLMAIALVTVVLGILQLSSRTLHNSSFWMEKGSFVLVAGLGLLLCFRALKQLYIVLVRQPKPATILRVIPLPVTPLNVAAHGRMTLSPIYAPSHSLHQHDVDCGCGHRHLPSNEELERGSSWHTRLMIVLAMGMRPCSGAIMVLLFSKVIGVYLWGVASALVMAAGTAITISALAVLVFYCRRVIERLGANRASPVWQRATFSLLSFAGGMILVGSGILLYLSAQPAMMGGIRPFSG”, for which the protein production entry is on record as “failed”.

Regarding “MSVPDNVYLIGTMNTADRSLAGLDIALRRRFDFVEMAPRPDKLTGVKVAEIDISAVLETMNRRIEVLLDREHRLGHAYFMSLENSNDLSRLSNIFRQQIIPLLQEYFFEDWQRIAWILNDHRKDERFRFIVPAPYSVDSLFGDTGQVAQDSKAWRMNEEAFHKPLEHHHHHH”, the protein production result is “failed”.

With “MSVSAELSQTIINNQVTSVLILDESLMIRYANPAAEQLFSQSAKRLMHQSLNHLVQHSSLDLQLLTQPLQSGQSITDSDVTLVIDSKPLMLEVTVSPISWHKELLLLAEMRTIG”, the protein production entry is given as “failed”.

As to “MSVSGPCLSCDTPGCTMQAHSDSDESFFERAWAVVAQIPVGRVTTYGDIAAHLGRRGAARIVGWALKDAVGGDLPCHRVVNRNGVLTGRRHFETPHVMAERLRSEGVTFVAEDQVDLDAHRWRPGEAE”, the protein production entry is reported as “failed”.

For the sequence “MSVSVKGNEQLTSLLNDWYRAMLSQQVIKATNLKKKIDEKINKLSIEPDQEHQDQNLLLYYSLLEFRYKVLTDSLGIQQNSFDTISDYDMPTDQFLQFYYHFFKSIHSTFISNYTEAEEHYKLAEKILVAIPDEIEHAEFYYRIATFYHHTYNNLASIEYANKSRAIFSKYEGYEVKTAFCNSLLGGCCIYLKQYEQAEEYLHCAIDLLQKNREEDSLLYVKNTMGWLYSDQSMSTLAIRHLSEVTEKIPTHFKAIFLQAKEHYKLGEQSTASQLIDKGLQICREIHNEEYTHHFSILKKLNENIPLEELEKIIQEGILYFEEEELWEYVVEYAELFATKCRQLENHQKVSDYFHICYQARQKSIAKGVLK”, the protein production result is “failed”.

For “MSVYKLTDLRDNSTNWKINVKILSIWNHPPNSHGEIMTMILHDDKNNRVDATIPQGNYHNPFRPFLKPGTWIHISDFRVIVPQSRVRYSSFCFHIKFIWETSVYPLPELVKRDFFDFIFPIDLKYPCLEDWDYVTDAMSEVTNISAIKKFPFVCRQGETDYESRYVSFELLDNMGEKMKCYAVGRCCELFVINFSKCISSASYNYQPIVAIVRFWRIAEIEGENVLKSEFGCSRIYLNPTNFPEIDIQSYIRGFEDYDELPENPRMEVIEEN”, the protein production entry was “failed”.

“MSWACRPATAQRQAGRNGGAPTVQSRVPRRASPRTHHPFVRLVATTLRPVRPYSDLLQHRLLHPMHRFVIVGLGNFGASVAEALYSHGHDVIAVDVDEQAVDDIAPHCSRAAVGDGREAATLEEIGAEAADAAVVSTGDDITASILATMALQDLGVDVVYVKVISDNHARIMRQLGATEAVFPERDSAFNLASRISEKGVVNYVRMGRNLSVQELVVPEEWRGHTLRELDVRAEYGVSVVGIHETTIDDMIVPPNPDDTLRHTDTLILAGTDEAIEKVADLASATAEEAE”: the protein production result is “failed”.

On to “MSWENPGPPKRADARRNYDRIIEAAAAEVARHGADASLEEIARRAGVGSATLHRHFPSRWGLLQAVFQERVAQLCDEARSLAAEHPPATALTRWLTSLAVFGAVTRGAARSLLPATGTNTGAALDSRCEQLLTEAGADLLARAQEDGTVRDDVTALELLSLANAVSLAAEHTPDAAHHATRLMGIALGGLGAPGPRPQG”, for which the protein production result is recorded as “not failed”.

The values above are taken from a protein production outcome set (Wang et al. 2014).
